Target: N-terminal GST-like domain of P. berghei glutamyl-tRNA synthetase (ERS-N) (P. berghei)
Experiment: SEC-SAXS

Substance: N-terminal GST-like domain of P. berghei glutamyl-tRNA synthetase (ERS-N) (from UniProt A0A509AR09 1-240) (domain or fragment)
- percent of dimers (OLIGOMER fit): 77.9%
- percent of tetramers (OLIGOMER fit): 22.1%

Source: paper PMC9878616
